Data as given in article PMC9143231, “Parapoxvirus Interleukin-10 Homologues Vary in Their Receptor Binding, Anti-Inflammatory, and Stimulatory Activities” (Pathogens, 2022).

Experiments:
[1] = biological target: hIL-10R1-Fc chimeric protein (extracellular domain of human IL-10 receptor 1 fused to Fc) (human) (UniProt Q13651); test: ELISA; […] (400 ng/mL) […]
[2] = biological target: Orf virus interleukin-10, FLAG-tagged (Orf virus); test: non-reducing SDS-PAGE with anti-FLAG Western blot
[3] = biological target: hIL-10R1-Fc chimeric protein (extracellular domain of human IL-10 receptor 1 fused to Fc) (human) (UniProt Q13651); test: ELISA; competitive displacement ELISA: hIL-10 (400 ng/mL) coated on Maxisorp wells; serially diluted IL-10 preincubated with 300 ng/mL hIL-10R1-Fc in PBS, 0.4% BSA, 0.02% Tween20 at 25 °C for 1 h, then transferred to the coated wells for 1 h at 25 °C; free hIL-10R1-Fc detected with anti-human IgG
[4] = biological target: Pseudocowpox virus interleukin-10, FLAG-tagged (Pseudocowpox virus); test: non-reducing SDS-PAGE with anti-FLAG Western blot; purified FLAG-tagged IL-10 mixed with SDS-PAGE sample buffer without DTT, without boiling; bands detected with HRP-conjugated anti-FLAG M2
[5] = biological target: hIL-10R1-Fc chimeric protein (extracellular domain of human IL-10 receptor 1 fused to Fc) (human) (UniProt Q13651)
[6] = biological target: hIL-10R1-Fc chimeric protein (extracellular domain of human IL-10 receptor 1 fused to Fc) (human) (UniProt Q13651); remark: listed apart in the source
[7] = biological target: T1, hIL-10R1-Fc chimeric protein (extracellular domain of human IL-10 receptor 1 fused to Fc) (human, UniProt Q13651 22-235); test: ELISA; competitive displacement ELISA: hIL-10 (400 ng/mL) coated on Maxisorp wells; serially diluted IL-10 preincubated with 300 ng/mL hIL-10R1-Fc in PBS, 0.4% BSA, 0.02% Tween20 at 25 °C for 1 h, then transferred to the coated wells for 1 h at 25 °C; free hIL-10R1-Fc detected with anti-human IgG; details: both partners purified
T1 construct: human interleukin-10 receptor subunit 1 (IL-10R1), extracellular domain; No catalogue number printed; also called soluble hIL-10R1-Fc fusion protein; source: bought: R&D Systems
T1 sequence: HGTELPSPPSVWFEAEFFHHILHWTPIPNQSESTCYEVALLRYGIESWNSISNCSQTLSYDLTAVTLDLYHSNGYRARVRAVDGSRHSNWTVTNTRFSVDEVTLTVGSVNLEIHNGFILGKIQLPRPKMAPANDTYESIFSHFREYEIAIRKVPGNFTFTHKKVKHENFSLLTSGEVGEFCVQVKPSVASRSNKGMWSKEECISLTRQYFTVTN

Molecule: Orf virus interleukin-10, FLAG-tagged (ligand)
- Emax (Δ%) of hIL-10R1-Fc displacement, relative to hIL-10 [1]: 105 Δ%
- pIC50 (negative log10 of the IC50) [1]: 9.24 M
- stoichiometry N [2]: 2

Molecule: Bovine papular stomatitis virus interleukin-10, FLAG-tagged (ligand)
- Emax (Δ%) of hIL-10R1-Fc displacement, relative to hIL-10 [3]: 98.7 Δ%
- pIC50 (negative log10 of the IC50) [3]: 8.72 M

Molecule: Red deerpox virus interleukin-10, FLAG-tagged (ligand)
- Emax (Δ%) of hIL-10R1-Fc displacement, relative to hIL-10 [3]: 108 Δ%
- pIC50 (negative log10 of the IC50) [3]: 9.51 M

Molecule: Pseudocowpox virus interleukin-10, FLAG-tagged (ligand)
- stoichiometry N [4]: 2
- Emax (Δ%) of hIL-10R1-Fc displacement, relative to hIL-10 [3]: 94.6 Δ%
- pIC50 (negative log10 of the IC50) [3]: 7.66 M

Molecule: Grey sealpox virus interleukin-10, FLAG-tagged (ligand)
- Emax (Δ%, relative to hIL-10) of inhibition of IL-1β production by LTA-stimulated human THP-1 monocytes, 48 h [5]: 25.8 Δ%
- Emax (Δ%, relative to hIL-10) of inhibition of IL-8 production by LTA-stimulated human THP-1 monocytes, 24 h (pIC50 ND) [5]: 50.1 Δ%
- Emax (Δ%, relative to hIL-10) of inhibition of MCP-1 production by LTA-stimulated human THP-1 monocytes, 24 h (pIC50 ND) [5]: 31 Δ%
- pIC50 (M) of inhibition of IL-1β production by LTA-stimulated human THP-1 monocytes, 48 h [5]: 11 M (pIC50)
- Emax (Δ%, relative to hIL-10) of stimulation of murine MC/9 mast cell proliferation (with IL-3 and IL-4), 48 h [6]: 25.8 Δ%
- pEC50 (M) of stimulation of murine MC/9 mast cell proliferation (with IL-3 and IL-4), 48 h [6]: 9.3 M (pEC50)

B1: human interleukin-10, FLAG-tagged (ligand, UniProt P22301 19-178, looked up)
chain: SPGQGTQSENSCTHFPGNLPNMLRDLRDAFSRVKTFFQMKDQLDNLLLKESLLEDFKGYLGCQALSEMIQFYLEEVMPQAENQDPDIKAHVNSLGENLKTLRLRLRRCHRFLPCENKSKAVEQVKNAFNKLQEKGIYKAMSEFDIFINYIEAYMTMKIRN
notes: also called hIL-10; human IL-10; not shown: FLAG, C-terminal, kept
- Emax (Δ%) of hIL-10R1-Fc displacement, relative to hIL-10 [7]: 100 Δ%
- pIC50 (negative log10 of the IC50) [7]: 8.79
